From PMC10208570, “Peptidomimetic antibiotics disrupt the lipopolysaccharide transport bridge of drug-resistant Enterobacteriaceae” (Science Advances, 2023) come the findings set out here.

For the assay, the target named is LptAm^Q62L (E. coli) (E. coli (ATCC 25922)). Nature of the assay: fluorescence polarisation; indirect (competition) assay: unlabeled peptide or protein serially diluted into a 1:1 mixture of Lpt protein and 6-FL (2x stock 70 nM); 50 mM Na-Pi pH 7, 150 mM NaCl, 0.05% Tween 20; incubated overnight at 4°C, read at 25°C; triplicates; Ki from IC50 by Cheng-Prusoff. In general terms: In fluorescence polarisation assays a small probe gives low polarisation when free and higher when bound to something large.

B1: mLptA (E. coli), LptA(25-185) E39V M47A R76A (domain or fragment)
chain: GAFAVTGDTDQPIHIVSDQQSLDAQGNVVTFTGNVIVTQGTIKINADKVVVTAPGGEQGKEVIDGYGKPATFYQMQDNGKPVEGHASQMHYELAKDFVVLTGNAYLQQVDSNIKGDKITYLVKEQKMQAFSDKGKRVTTVLVPSQLQDKNNKGQTPAQKKGN
For the molecule B1, the inhibitory constant (Ki) worked out at 69 nM.

Broadly, the Ki is the dissociation constant of the complex between target and ligand, obtained from inhibition or displacement.
